Data from the supplement of paper PMC10567573.

B1: P2RY14 (parent)
chain: KKIFKSHLKSSRNSTSVKKKSSRN
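Note: lentivirally expressed fusions sorted by FACS into six bins by GFP to DsRed ratio, PSI derived from sequencing read proportions per bin multiplied by bin number.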

Variants of: B1
Assay: protein stability index of a GFP-peptide fusion (GPS, HEK-293T) (PSI 1-6); higher = more stable
Details: c terminus: a fixed tail appended
KKIFKSHLKSSRNSTSCKKKSSRN gave a protein stability index of 4.17. Variant KKIFKSHLKSSRNSTSDKKKSSRN has a protein stability index of 4.25. With KKIFKSHLKSSRNSTSEKKKSSRN the protein stability index was 3.99. KKIFKSHLKSSRNSTSFKKKSSRN gave a protein stability index of 3.97. KKIFKSHLKSSRNSTSGKKKSSRN gave a protein stability index of 3.73. For KKIFKSHLKSSRNSTSHKKKSSRN, the protein stability index was 4.1. Variant KKIFKSHLKSSRNSTSIKKKSSRN has a protein stability index of 3.59. KKIFKSHLKSSRNSTSKKKKSSRN showed a protein stability index of 4.02. KKIFKSHLKSSRNSTSLKKKSSRN showed a protein stability index of 4.02. KKIFKSHLKSSRNSTSMKKKSSRN showed a protein stability index of 4.12. In the case of KKIFKSHLKSSRNSTSNKKKSSRN, the protein stability index is reported as 4.21. Variant KKIFKSHLKSSRNSTSPKKKSSRN has a protein stability index of 4.09. In the case of KKIFKSHLKSSRNSTSQKKKSSRN, the protein stability index is reported as 4.06. KKIFKSHLKSSRNSTSRKKKSSRN gave a protein stability index of 4.49. KKIFKSHLKSSRNSTSSKKKSSRN gave a protein stability index of 4.03. With KKIFKSHLKSSRNSTSTKKKSSRN the protein stability index was 4.41. In the case of KKIFKSHLKSSRNSTSWKKKSSRN, the protein stability index is reported as 3.6. In the case of KKIFKSHLKSSRNSTSYKKKSSRN, the protein stability index is reported as 3.99. With KKIFKSHLKSSRNSTSVAKKSSRN the protein stability index was 3.8. For KKIFKSHLKSSRNSTSVCKKSSRN, the protein stability index was 3.34. Work on KKIFKSHLKSSRNSTSVDKKSSRN yielded a protein stability index of 3.98. KKIFKSHLKSSRNSTSVEKKSSRN showed a protein stability index of 3.98. Variant KKIFKSHLKSSRNSTSVFKKSSRN has a protein stability index of 3.54. KKIFKSHLKSSRNSTSVGKKSSRN gave a protein stability index of 3.99. In the case of KKIFKSHLKSSRNSTSVHKKSSRN, the protein stability index is reported as 4.07. Work on KKIFKSHLKSSRNSTSVIKKSSRN yielded a protein stability index of 3.7. With KKIFKSHLKSSRNSTSVLKKSSRN the protein stability index was 3.86. KKIFKSHLKSSRNSTSVMKKSSRN showed a protein stability index of 4.1. In the case of KKIFKSHLKSSRNSTSVNKKSSRN, the protein stability index is reported as 4.27. KKIFKSHLKSSRNSTSVPKKSSRN showed a protein stability index of 4.29. In the case of KKIFKSHLKSSRNSTSVQKKSSRN, the protein stability index is reported as 3.67. With KKIFKSHLKSSRNSTSVRKKSSRN the protein stability index was 3.88. KKIFKSHLKSSRNSTSVSKKSSRN gave a protein stability index of 4.21. For KKIFKSHLKSSRNSTSVTKKSSRN, the protein stability index was 4.17. With KKIFKSHLKSSRNSTSVVKKSSRN the protein stability index was 3.74. KKIFKSHLKSSRNSTSVWKKSSRN gave a protein stability index of 2.98. In the case of KKIFKSHLKSSRNSTSVYKKSSRN, the protein stability index is reported as 3.66. With KKIFKSHLKSSRNSTSVKAKSSRN the protein stability index was 3.98. In the case of KKIFKSHLKSSRNSTSVKCKSSRN, the protein stability index is reported as 3.34. In the case of KKIFKSHLKSSRNSTSVKDKSSRN, the protein stability index is reported as 3.6. In the case of KKIFKSHLKSSRNSTSVKEKSSRN, the protein stability index is reported as 3.98. For KKIFKSHLKSSRNSTSVKFKSSRN, the protein stability index was 3.13. KKIFKSHLKSSRNSTSVKGKSSRN gave a protein stability index of 4.02. In the case of KKIFKSHLKSSRNSTSVKHKSSRN, the protein stability index is reported as 3.99. In the case of KKIFKSHLKSSRNSTSVKIKSSRN, the protein stability index is reported as 3.59. KKIFKSHLKSSRNSTSVKLKSSRN showed a protein stability index of 3.5. KKIFKSHLKSSRNSTSVKMKSSRN gave a protein stability index of 3.92. KKIFKSHLKSSRNSTSVKNKSSRN gave a protein stability index of 3.98. KKIFKSHLKSSRNSTSVKPKSSRN gave a protein stability index of 3.34. In the case of KKIFKSHLKSSRNSTSVKQKSSRN, the protein stability index is reported as 4. KKIFKSHLKSSRNSTSVKRKSSRN gave a protein stability index of 4.27. For KKIFKSHLKSSRNSTSVKSKSSRN, the protein stability index was 3.9. For KKIFKSHLKSSRNSTSVKTKSSRN, the protein stability index was 3.62. KKIFKSHLKSSRNSTSVKVKSSRN gave a protein stability index of 4.31. Variant KKIFKSHLKSSRNSTSVKWKSSRN has a protein stability index of 2.96. Variant KKIFKSHLKSSRNSTSVKYKSSRN has a protein stability index of 3.17. Variant KKIFKSHLKSSRNSTSVKKASSRN has a protein stability index of 3.64. Work on KKIFKSHLKSSRNSTSVKKCSSRN yielded a protein stability index of 3.67. With KKIFKSHLKSSRNSTSVKKDSSRN the protein stability index was 3.89. KKIFKSHLKSSRNSTSVKKESSRN gave a protein stability index of 3.75. With KKIFKSHLKSSRNSTSVKKFSSRN the protein stability index was 2.75. KKIFKSHLKSSRNSTSVKKGSSRN gave a protein stability index of 3.43. In the case of KKIFKSHLKSSRNSTSVKKHSSRN, the protein stability index is reported as 3.62. Work on KKIFKSHLKSSRNSTSVKKISSRN yielded a protein stability index of 3.5. In the case of KKIFKSHLKSSRNSTSVKKLSSRN, the protein stability index is reported as 3.42. For KKIFKSHLKSSRNSTSVKKMSSRN, the protein stability index was 3.48. In the case of KKIFKSHLKSSRNSTSVKKNSSRN, the protein stability index is reported as 3.86. KKIFKSHLKSSRNSTSVKKPSSRN gave a protein stability index of 3.83. Variant KKIFKSHLKSSRNSTSVKKQSSRN has a protein stability index of 4.04. For KKIFKSHLKSSRNSTSVKKRSSRN, the protein stability index was 4.39. For KKIFKSHLKSSRNSTSVKKSSSRN, the protein stability index was 4.07. With KKIFKSHLKSSRNSTSVKKTSSRN the protein stability index was 3.62. Variant KKIFKSHLKSSRNSTSVKKVSSRN has a protein stability index of 3.81. For KKIFKSHLKSSRNSTSVKKWSSRN, the protein stability index was 3.15. KKIFKSHLKSSRNSTSVKKYSSRN showed a protein stability index of 3.95. For KKIFKSHLKSSRNSTSVKKKASRN, the protein stability index was 3.98. With KKIFKSHLKSSRNSTSVKKKCSRN the protein stability index was 3.84. KKIFKSHLKSSRNSTSVKKKDSRN showed a protein stability index of 4.42. KKIFKSHLKSSRNSTSVKKKESRN gave a protein stability index of 3.8. With KKIFKSHLKSSRNSTSVKKKFSRN the protein stability index was 3.73. KKIFKSHLKSSRNSTSVKKKGSRN showed a protein stability index of 3.8. With KKIFKSHLKSSRNSTSVKKKHSRN the protein stability index was 4.22. With KKIFKSHLKSSRNSTSVKKKISRN the protein stability index was 3.98. Work on KKIFKSHLKSSRNSTSVKKKKSRN yielded a protein stability index of 4.48. KKIFKSHLKSSRNSTSVKKKLSRN gave a protein stability index of 3.77. With KKIFKSHLKSSRNSTSVKKKMSRN the protein stability index was 3.92. KKIFKSHLKSSRNSTSVKKKNSRN gave a protein stability index of 4.17. Work on KKIFKSHLKSSRNSTSVKKKPSRN yielded a protein stability index of 3.72. With KKIFKSHLKSSRNSTSVKKKQSRN the protein stability index was 3.88. For KKIFKSHLKSSRNSTSVKKKRSRN, the protein stability index was 4.27. With KKIFKSHLKSSRNSTSVKKKTSRN the protein stability index was 3.8. Variant KKIFKSHLKSSRNSTSVKKKVSRN has a protein stability index of 4.14. For KKIFKSHLKSSRNSTSVKKKWSRN, the protein stability index was 3.3. In the case of KKIFKSHLKSSRNSTSVKKKYSRN, the protein stability index is reported as 3.38.
